# Results published in the DeepSol protein solubility set.
# Assay: soluble on expression in E. coli; label from the status in PepcDB or PDB records
row,Sequence,soluble on expression in E. coli
1,MSLNINYPAEYEIGDKVFTCIGAALFGQISAASNCWSNHVGIIIGHNGEDFLVAESRVPLSTITTLSRFIKRSSNQRYAIKRLDAGLTEQQKQRIVEQVPSRLRKLYHTGFKYESSRQFCSKFVFDIYKEALCIPVGEIETFGELLNSNPNAKLTFWKFWFLGSIPWERKTVTPASLWHHPGLVLIHAEGVETPQPELTEAVEGHHHHHH,not soluble
2,ESKLEGKAAQDIKDEEPGDLGRPKPECEGYDPNALYCICRQPHNNRFMICCDRCEEWFHGDCVGISEARGRLLERNGEDYICPNCTILQVQDETHSETADQQEAKWRPGDADGTDCTSIGTIEQKSSEDQGIKGRIEKAANPSGKKKLKIFQPGPGPVPTQLPVLWQVLEIAVSRSISAFTLLHCISCKVIEAPGASKCIGPGCCHVAQPDSVYCSNDCILKHAAATMKFLSSGKEQKPKPKEKMKMKPEKPSLPKCGAQAGIKISSVHKRPAPEKKETTVKKAVVVPARSEALGKEAACESSTPSWASDHNYNAVKPEKTAAPSPSLLYKSTKEDRRSEEKAAATAASKKTAPPGSTVGKQPAPRNLVPKKSSFANVAAATPAIKKPPSGFKGTIPKRPWLSATPSSGASAARQAGPAPAAATAASKKFPGSAALVGAVRKPVVPSVPMASPAPGRLGAMSAAPSQPNSQIRQNIRRSLKEILWKRVNDSDDLIMTENEVGKIALHIEKEMFNLFQVTDNRYKSKYRSIMFNLKDPKNQGLFHRVLREEISLAKLVRLKPEELVSKELSTWKERPARSVMESRTKLHNESKKTAPRQEAIPDLEDSPPVSDSEEQQESARAVPEKSTAPLLDVFSSMLKDTTSQHRAHLFDLNCKICTGQVPSAEDEPAPKKQKLSASVKKEDLKSKHDSSAPDPAPDSADEVMPEAVPEVASEPGLESASHPNVDRTYFPGPPGDGHPEPSPLEDLSPCPASCGSGVVTTVTVSGRDPRTAPSSSCTAVASAASRPDSTHMVEARQDVPKPVLTSVMVPKSILAKPSSSPDPRYLSVPPSPNISTSESRSPPEGDTTLFLSRLSTIWKGFINMQSVAKFVTKAYPVSGCFDYLSEDLPDTIHIGGRIAPKTVWDYVGKLKSSVSKELCLIRFHPATEEEEVAYISLYSYFSSRGRFGVVANNNRHVKDLYLIPLSAQDPVPSKLLPFEGPGKRRLSGWR,soluble
3,GRPVITTSIVQDQGIDELEAAIASLFFESGIESGDVTYVSNSRHIALLEQAKRAVEDALEAIEMDVPIDMVQIDITRAWELLGEIIGDSVHESLIDQLFSQFCLG,soluble
4,MELTLHEARVIGCLLEKEVTTPEQYPLSLNALTLACNQKTSREPVLELTEAQVQDALDSLNKKRLISEQSGFGSRVVKYKHRFCNTEFSELQLSTAAVAIVCLLLLRGPQTPGELRTRSNRLHDFKDVLEVEACIKQLMERDKPVLTQLPREPGKRECRYTELFSQGSEQVSATSLSADSPSADSNSLNAQDRQQLEARVTQLEGQVAELKDKLESLIASLS,soluble
5,SASVEGDDDFGSSSSRSYQDQLYTELWKVCAGPLVEVPRAQERVFYFPQGHMEQLVASTNQGINSEEIPVFDLPPKILCRVLDVTLKAEHETDEVYAQITLQPEEDQSEPTSLDPPIVGPTKQEFHSFVKILTASDTSTHGGFSVLRKHATECLPSLDMTQATPTQELVTRDLHGFEWRFKHIFRGQPRRHLLTTGWSTFVSSKRLVAGDAFVFLRGENGDLRVGVRRLARHQSTMPTSVISSQSMHLGVLATASHAVRTTTIFVVFYKPRISQFIVGVNKYMEAIKHGFSLGTRFRMRFEGEESPERIFTGTIVGSGDLSSQWPASKWRSLQVQWDEPTTVQRPDKVSPWEIEPFLATSPISTPAQQPQSKCKRSRPIEPSVKTPAPPSFLYSLPQSQDSINASLKLFQDPSLERISGGYSSNNSFKPETPPPPTNCSYRLFGFDLTSNSPAPIPQDKQPMDTCGAAKCQEPITPTSMSEQKKQQTSRSRTKVQMQGIAVGRAVDLTLLKSYDELIDELEEMFEIQGQLLARDKWIVVFTDDEGDMMLAGDDPWNEFCKMAKKIFIYSSDEVKKMTTKLKISSSLENEEYGNESFENRSRG,not soluble
6,MGVISAYAVVHERAAIIDPGTAKGAEIILDEIDRSWNVEYICPTHIHIDHGGGAARLAKALDAKIIVHPRGVKHVVNPEKLWEASKAVLGEVAEIYGKPESIDESKVIAVEDEQEFDLGGERLKVFHAPGHAPHMLVYYLTNSKVLFPADAVGMCFGGVVFPLTPPPFDADAALKTLKRLKGLKVDYVAFTHYGVVELEHHHHHH,soluble
7,MGSDKIHHHHHHMAHAHQKSDPHTVDFQVDPVVLELGQRFVDAGYELSLVGGPVRDLFLGRRSPDLDFTTDATPDQTLALIRKWADNFWEIGKAFGTIGMRKSGFQIEITTYRAEAYDPESRKPMVAFGSSLTDDLLRRDFTINAMALRLPSMELIDPFGGVRDLHASVLATPGAPETSFSDDPLRMMRAARFAAQLGVAVRGDVKHAMSQMAERISIISAERVREELVKLICGAHPRVGIDLLVDTGLAEFVLPEVSALRLEADEHHRHKDVYQHSLQVLEQAASLETDSDGAVPGPDFVLRFAALMHDVGKPATRRFEPGGAVSFRHHDMVGSKLTKKRMKALRFDNDTIKAVARLVELHMRFYGYGEAGWSDSAVRRYVTDAGPLLERLHRLTRSDVTTRNQRKADRLSFAYDDLEARIAALREQESLEAVRPDLDGGQIMALLGLKPGPVVGKAYKFLLEQRMEHGPLDPVVAEARLREWWADQPEAAEHQPAAGVELSTTEES,not soluble
8,GEIYDEHDEVEAVQTLDNNTWLVLPNVKAAFFFNKWIKRDLVKSKNMTIQRYLASFENDGLNTQNKLETPWFIAEAIVDSENPEQIRYEIRKKSDVVD,soluble
9,MKKQHDTIIVLDFGSQYNQLIARRIREFGVYSELHPHTITAEEIKAMNPKGIIFSGGPNSVYGEGALHCDEKIFDLGLPIFGICYGMQLMTQQFGGTVERANHREYGKAVLKVENESKLYANLPEEQVVWMSHGDLVTGLPEGFVVDATSESCPIAGMSNEAKNLYGVQFHPEVRHSEHGNDLIKNFVFGVCGCSEGWNMENFIEVELEKIRETVGDKKVLCALSGGVDSSVVAVLIHKAIGDQLTCIFVDHGLLRKGEAEGVMKTFSEGFHMNVIKVDAKERFMNKLKGVEDPEQKRKIIGNEFIYVFDDEASKLEGMDFLAQGTLYTDIVESGTATAQTIKSHHNVGGLPEDMQFKLIEPLNTLFKDEVRVLGSELGIPDEIVWRQPFPGPGLGIRVLGEITEEKLEIVRESDAILREEIIKAGLDREIWQYFTALPGMRSVGVMGDERTYDYTVGIRAVTSIDGMTADWARIPWDVLEKISVRIVNEVKHVNRIVYDVTSKPPATIEWE,not soluble
10,VEADSNIGYNATFGYQKPMGGAGAYWGMEFGLGSRGFKADEMKCIAHNIQYSPFTFGWKIGVADNLSIDPHLGVFASYDYTSKMKESGESISWGDFADYLEVDYNHFDAGMNIGVGLWYDRFNLDFTYQRGFIDVFSDLDGIKTSNFMIRLGIAF,not soluble
11,MGSDKIHHHHHHMTGQMNILLANPRGFCAGVDRAISIVERALELFSPPIYVRHEVVHNRYVVQNLKDRGAIFVEELDQVPDNSIVIFSAHGVSQAVRAEAKKRGLKVFDATCPLVTKVHLQVTRASRKGVECILIGHEGHPEVEGTMGQYDNPEGGVYLIESVEDVEALQVKDPENLCFVTQTTLSVDDTLDIIAALQAKFPSIEGPRKDDICYATQNRQDAVRSLATQAKLFIVVGSKNSSNSNRLRELAEKSGAQAYLVDSAADVKAEWFANVDKVAVTAGASAPEVLVKQVIDAITHLAPSVVTEVEGRKEDVVFAVPVELR,not soluble
12,DTVKIDANVNYQIIQGFGGMSGVGWINDLTTEQINTAYGSGVGQIGLSIMRVRIDPDSSKWNIQLPSARQAVSLGAKIMATPWSPPAYMKSNNSLINGGRLLPANYSAYTSHLLDFSKYMQTNGAPLYAISIQNEPDWKPDYESCEWSGDEFKSYLKSQGSKFGSLKVIVAESLGFNPALTDPVLKDSDASKYVSIIGGHLYGTTPKPYPLAQNAGKQLWMTEHYVDSKQSANNWTSAIEVGTELNASMVSNYSAYVWWYIRRSYGLLTEDGKVSKRGYVMSQYARFVRPGALRIQATENPQSNVHLTAYKNTDGKMVIVAVNTNDSDQMLSLNISNANVTKFEKYSTSASLNVEYGGSSQVDSSGKATVWLNPLSVTTFVSK,soluble
13,MGSDKIHHHHHHMNEDLFYDRLHQRCPGKYLLEELETSKSNDVLHASRFVCEMELVQKTNAYYCKTIVKMLLDHEWIFAKAFTIVNDGEDEIEIYDYLYEKYIKLLSTGKPDPMMKDVVRYRFDEDVKITIEETPNLISAASTTGFRTWEAALYMGDFLIHKPLQELAPVQGQDDGKKKLNVLEVGAGTGIVSLVILQKYHEFVNKMYVTDGDSNLVETQLKRNFELNNEVRENEPDIKLQRLWWGSDRVPEDIDLVVGADVTYDPTILPDLCECLAECLALDRCKLCLLSATIRSESTVQLFSQECNKLGLKCTIVTSTEYDANNEIRAMKALQFKPLIAPIRIYKITKQ,not soluble
14,MELKKRSEFPENELWDLTALYKDRQDFLLAIEKALQDIDLFKRNYEGRLTSVDDFTQALIEIEHIYIQMSHIGTYAFMPQTTDFSDESFAQIAQAGDDFMTKASVALSFFDTALANADLDVLDTLEKNPYFSAAIRMAKIQKEHLLSPDVEKALANLREVINAPYDIYTKMRAGDFDMDDFEVDGKTYKNSFVSYENFYQNHENAEIREKAFRSFSKGLRKHQNTAAAAYLAKVKSEKLLADMKGYASVFDYLLAEQEVDRSLFDRQIDLIMTEFGPVAQKFLKHVAQVNGLEKMTFADWKLDIDNDLNPEVSIDGAYDLVMKSLAPLGQEYTKEIERYQTERWVDFAANANKDSGGYAADPYKVHPYVLMSWTGRMSDVYTLIHEIGHSGQFIFSDNHQSYFNTHMSTYYVEAPSTFNELMLSDYLEHQFDDPRQKRFALAHRLTDTYFHNFITHLLEAAFQRKVYTLIEEGGTFGADQLNAMMKEVLTDFWGDAVDIDDDAALTWMRQAHYYMGLYSYTYSAGLVISTAGYLNLKHNPNGAKEWLDFLKSGGSRTPLDTAMLIGADIATEKPLRDTIQFLSDTVDQIISYTEDMSHA,soluble
15,MGSDKIHHHHHHMTSSFTDYCKFFNRILSEVQETQEQAIIKGAHLVSEAVMNGGRFYVFGSGHSHMIAEEIYNRAGGLALVTAILPPELMLHERPNKSTYLERIEGLSKSYLKLHQVTNKDVIMIISNSGRNTVPVEMAIESRNIGAKVIAMTSMKHSQKVTSRHKSGKKLYEYADVVLDNGAPVGDAGFQIANSEIYSGATSDSIGCFLAQALIVETLHLLVQQGFEPPVFKSSNVDGADLYNDKIFNEYVKW,not soluble
16,MGSDKIHHHHHHAYGILGVLAITKDEAVLVAVTGVLSVGQLYGADILKITNVEFISLRTFGSVENVDSRIIDLQRQFIDLKKMFEKIIKKILKNLQRLLSSQMFYFSSLQSYDLTRSAQHRDSHDCSDARFFWNRSLHFSFQRYGIDTDNWLLKCMAGSVLVRVVYVGANTGRVALISRLSCERVGTRFNVRGANYLGNVANFVETEQLLLFDEKECSLLQIRGSIPLFWEQPGVNVGSHKVKLRAFETSLPAYHRHLSQLQHRYGEFAIVNLLGRKEGERVLGDAFKTQHKSSHFAPLVDFIDFDYHAQMKISKEAI,not soluble
17,IRRKINANVYDKVVLYAPTWRGIHGKATLDIEKLKNDLEKLADQDCHIVFRGHHMIEKLVSEQNISGITIVPSEIDTNELLGAIDILITDYSSIAFDFFVMNRPVIYYAYDIEQYNNERGLYFPLNELPGTVCFNDVELLNTLSGYLRNEIYFDASKGIDKFCKNDDGSVCGKVIEWFFF,not soluble
